To fix the notation:
T1: Elicitor responsive protein, bait fragment aa 50-145 (Oryza sativa, UniProt Q0JBH9 50-144)
T1 construct: bait; also called OsERP; PN20696
T1 sequence: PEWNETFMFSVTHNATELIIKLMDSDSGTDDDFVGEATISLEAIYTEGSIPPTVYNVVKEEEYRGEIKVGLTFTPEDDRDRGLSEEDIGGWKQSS

T2: O. sativa Chitinase, Class III, bait fragment aa 10-200 (Oryza sativa)
T2 construct: bait; also called OsCHIB1; PN19651
T2 chain: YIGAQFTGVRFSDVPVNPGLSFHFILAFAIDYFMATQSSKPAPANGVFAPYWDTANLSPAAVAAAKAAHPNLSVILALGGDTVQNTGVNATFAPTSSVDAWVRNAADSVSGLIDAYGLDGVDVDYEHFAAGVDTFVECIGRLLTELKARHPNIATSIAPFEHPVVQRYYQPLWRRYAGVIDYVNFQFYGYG

T3: O. sativa Chilling-Inducible Protein CAA90866, bait clone aa 100-250 (Oryza sativa)
T3 construct: bait; also called OsCAA90866; PN20311
T3 chain: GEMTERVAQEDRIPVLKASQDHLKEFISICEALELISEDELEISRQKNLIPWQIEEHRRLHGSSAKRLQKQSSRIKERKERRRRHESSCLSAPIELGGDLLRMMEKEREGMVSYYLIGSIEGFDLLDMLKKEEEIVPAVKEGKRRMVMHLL

B1: Novel protein PN29983, prey clone aa 1-131 (other)
chain: GVETVVTDTAGNKVVVTGAADAAELKERIEARTKKAVQIVSAGAGPPPKKDKEEKKDKDKKGGGDDKKAEKEKGGGGGDKKAEKEKGGGDKPKEEKKAKEPKEETVTLKIRLHCEGCIDRIKRRICKIKGG
notes: prey; AD fusion; input trait library
B2: Novel protein PN30857, prey clone aa 1-148 (other)
chain: QDTRPLQAQRRRHGGGPQDRQREPSQGDFLRRQREEHPGGEEDRAPHGAGGHAAAGEGRGPRAGEHPQHQGGAAGAVGGGREGGGRAHLLRPRRHRDIGDRVGHTYCLSRLRRIAQNEQPSIHPCPSLAGQVIIRWEFRIGRDNNTFQ
notes: as for B1
B3: Isp-4 like PN30870, prey clone aa 1-446 (other)
chain: GEEDEHPHEGRAGVERRRQHVVVLLPPPLAVLEHEVVEDGARDEPARDVGRRRRRHPGEPVGDDGDVDERDPLLLRERPAEQPHRHGQHGAGEEQPHQVAVQAVAAEQPGGADEPPDHRRVERDPVLGARPRAVRVQRLHVADVVDAAQHPPRHRQVHHAGDHRAHQLRRVHAPRRDLHVVPQLEVREERQRVHRADPPVDLEQQVRDRLPRQRVPDHELRDDVVPRLLVGGGLDDADGEGDDEGEGEGEEHPPPRQLHLLPVHERHDQRHGDAADEQHEEPPLRHLLVPPHQLRVHVHLRRRGAHRRPALPPDVPAVEQRHVHDRRREPQEPGPDGDGEQRAQVQLPVALVRRHVEVELPREHLGGVVLLPGRREQLVGEDWELPRVERVELPVAERHDEVDEHDEARGGVGDGRPRRHQRAPVVRRDAGPVQCEGADAEAVVAG
notes: as for B1
B4: Novel protein PN30844, prey clone aa 1-64 (other)
chain: VAVRKKETRDGAMQTMPSRVQQGAADFEETLFVRCHLYCSGGAGTGKPLRFEPRPFLLSAVAVE
notes: as for B1
B5: Pectinesterase-like PN30845, prey clone aa 1-64 (other)
chain: GDQGRTYLFRVSNVGVKTSVNVRIQGHSLRLVEVEGTHPVQNVYDSLDVHVGQSVAFLVTLDKA
notes: as for B1
B6: Ubiquitin specific protease-like PN30843, prey clone aa 164-221 (other)
chain: RALQNFTAEELLDGGEKQYQCQRCRKKVVAKKKFTIDKAPYVLTIHLKRFSPFNPREK
notes: as for B1
B7: NAD(P) binding domain protein PN30868, prey clone aa 167-336 (other)
chain: YNELAQLRAGKSSKSKLLIAKFKSPKSLNGWEVDQGSYFPNTFASRFDEGIDASFDFSEAGQAVFSGFVFTRGGYVEISKRLSLPLGSTLDRYDGLLFSVGGNGRSYVVILETGPLADTSQSKKYFARMTTKVGFCRVRVPFSAFRPVNPQDPPLDPFLVHTLTIRFEPK
notes: as for B1
B8: Novel Protein PN29984, prey clone aa 5-41 (other)
chain: SSGTTSRPTASRTQQTKGRLTVTISLKAYSPGRTRSG
notes: as for B1
B9: Novel Protein PN29984, prey clone aa 1-38 (other)
chain: APSSSSGTTSRPTASRTQQTKGRLTVTISLKAYSPGRT
notes: as for B1
B10: Novel Protein PN22823, Similar to ABC Transporter Proteins, prey clone aa 25-106 (other)
chain: SSSGKKVPLFSLFRYADRLDVLLMVVGTVGALGNGISQPLMTVLFGNVINSFGANTSGSVLRSVTKVKVSCWTMAGERQSAR
notes: prey; AD fusion; input trait library; also called OsPN22823
B11: Novel Protein PN29041, Fragment, Similar to A. thaliana Putative ATPase, prey clone aa 5-108 (other)
chain: VQIRRALRALVDDHTDGLMDFEDTEVRSSEETDALEEARLAIEQVVIPKGESVQLLPRPPSIIASQVDLVESFKLKWESIGQEPNACLRILPQFVGVEEGGKSV
notes: prey; AD fusion; input trait library; two clones; also called OsPN29041
B12: Novel Protein PN26645, Putative Protein Disulfide Isomerase-Related Protein Precursor, prey clone aa 24-164 (other)
chain: PLPEACPVPTAAEEILGPGGTCTTLDRRGDPVGVIEGDEVTLAKAITLLHMNKDDYIAVLFYASWCPFSQECKPNFEILASLFPSIRHFAFEESSIRPSIISRYGIHGFPTLFLLNSTMRVRYHGPRTVKSLAAFYRDVSG
notes: prey; AD fusion; input trait library; also called OsPN26645
B13: Novel Protein 23268, Similar to Phosphoribosylanthranilate Transferase, Chloroplast Precursor, Fragment, prey clone aa 12-200 (other)
chain: SEEEAEATLRLLLEEENEARIAAFLVLLRAKGETYEEIVGLAKAMIGCCVRVDGLDDAVDIVGTGGDGADTVNISTGSTILAAAAGAKVAKQGSRASSSACGSADGIKRCVNEVGVGFMMSANYHPAMKIVKPVRKKLKIKTVFNILGPLLNPARVPYAVIGVYHENIVTKMAKAAQKFGMKRALVVHS
notes: prey; AD fusion; input trait library; two clones; also called OsPN23268; Os23268
B14: Hypothetical Protein ORF020300-2233.2, Putative PP2A Regulatory Subunit, Similar to OsCAA90866, prey clone aa 93-387 (other)
chain: LLVPYYLGEMTERVAQEDRIPVLKASQDHLKEFISICEALELISEDELELSRQKQPDTMANRRAQKAARFKRQKAAETKLLEIKERKERRRRSLRAAALSAPIEAGEEDAFEDDGEEEREAWLATISLALCKAFDLLDMLKKEEEMLLAVKERQAKDGNAFAREMLDERTKKAEAWHHNAANRAPYSKPADPITCATFAQDVIEGRASVSQAHEHKHQPLIFGPASLVGGGLTSERERMAAQVFQPSYRLPTMSIEEAGLREMKMMEKWQERTAKMIQESNSAWHKDGSRSAQED
notes: prey; AD fusion; input trait library; also called OsORF020300-2233.2
B15: O. sativa Putative Proline-Rich Protein AAK63900, prey clone aa 122-224 (other)
chain: AAVAGKTHYRSALCASVTICGPIKKKIIDHFHKKPVPPKPEPKPEPPKPKPEPEHPFLDHIHKKEKHFFDHFHKKPVPPKPEPKPEPKPQPAPEYHNPSPPAN
notes: prey; AD fusion; input trait library; also called OsAAK63900; PN23266
B16: Hypothetical Protein ORF020300-2233.2, Putative PP2A Regulatory Subunit, Similar to OsCAA90866, prey clone aa 118-388 (other)
chain: SQDHLKEFISICEALELISEDELELSRQKQPDTMANRRAQKAARFKRQKAAETKLLEIKERKERRRRSLRAAALSAPIEAGEEDAFEDDGEEEREAWLATISLALCKAFDLLDMLKKEEEMLLAVKERQAKDGNAFAREMLDERTKKAEAWHHNAANRAPYSKPADPITCATFAQDVIEGRASVSQAHEHKHQPLIFGPASLVGGGLTSERERMAAQVFQPSYRLPTMSIEEAGLREMKMMEKWQERTAKMIQESNSAWHKDGSRSAQEDE
notes: as for B14
B17: O. sativa Chilling-Inducible Protein CAA90866, prey clone aa 1-126 (other)
chain: MVEVEEVSNKMQVQMRLHPAAAAEEEDADLPLPALFDKASHLHSLASSSSLDQEGIRKGVDLLRRCDEMVSKVGLFSSNETKDDISTANLKYLLVPYYLGEMTERVAQEDRIPVLKASQDHLKEFI
notes: prey; AD fusion; output trait library; also called OsCAA90866; PN20311
B18: Hypothetical Protein ORF020300-2233.2, Putative PP2A Regulatory Subunit, Similar to OsCAA90866, prey clone aa 1-190 (other)
chain: MVEVEEVSNKMQAQMRLHPAAAAEEEDADLPLPALFDKASHLHSLASSSSLDQEGIRKGVDLLRRCDEMVSKLGLFSSNETKDDVSTANLKYLLVPYYLGEMTERVAQEDRIPVLKASQDHLKEFISICEALELISEDELELSRQKQPDTMANRRAQKAARFKRQKAAETKLLEIKERKERRRRSLRAAA
notes: prey; AD fusion; output trait library; three clones; also called OsORF020300-2233.2
B19: Novel Protein PN29883, Fragment, prey clone aa 58-175 (other)
chain: YGQLKAAQPFFLLAGPNVIESEEHVLKMAKHIKGITTKLGLPLVFKSSFDKANRTSSKSFRGPGLEEGLKILEKVKATYDIPVVTDVHESHQCEAAGRVADIIQIPAFFCRQTDLLVA
notes: prey; AD fusion; output trait library; also called OsPN29883
B20: Hypothetical Protein ORF020300-2233.2, Putative PP2A Regulatory Subunit, Similar to OsCAA90866, prey clone aa 1-206 (other)
chain: MVEVEEVSNKMQAQMRLHPAAAAEEEDADLPLPALFDKASHLHSLASSSSLDQEGIRKGVDLLRRCDEMVSKLGLFSSNETKDDVSTANLKYLLVPYYLGEMTERVAQEDRIPVLKASQDHLKEFISICEALELISEDELELSRQKQPDTMANRRAQKAARFKRQKAAETKLLEIKERKERRRRSLRAAALSAPIEAGEEDAFEDD
notes: as for B18
B21: Novel Protein PN23045, prey clone aa 240-287 (other)
chain: ILSKLVQAKELLKEYVEREKKKREERSETPKSNEAVTKFDGSLNSMRH
notes: prey; AD fusion; input trait library; two clones; also called OsPN23045
B22: Novel Protein PN23225, Similar to Triticum aestivum Initiation Factor (iso)4f p82 Subunit, prey clone aa 639-792 (other)
chain: FGIRILDEAQQCIEELQCPEYYSEIVKEAINLALDKGPNFIDPLVRLLEHLHTKKIFKTEDLKTGCLLYAALLEDIGIDLPLAPALFGEVVARLSLSCSLSFEVVEEILKAVEDTYFRKGIFDAVMKTMGGNSSGQAILSSHAVVIDACNKLLK
notes: prey; AD fusion; input trait library; also called OsPN23225
B23: O. sativa Putative Pyrrolidone Carboxyl Peptidase, prey clone aa 92-222 (other)
chain: FGVNSGTTRFALENQAINEATFRCPDELGWKPQRAPIVSSDGSISNLRKTTVPVNEVNKSLQQMGFDVAPSDDAGRFVCNYVYYQSLRFAEQRGIKSLFVHFPLFTTISEEVQMNFVATLLEVLASQNYAQ
notes: prey; AD fusion; input trait library; two clones; also called OsAAG46136; PN23186

T4 sequence (A2XN40 whole entry, the tested form may be a part): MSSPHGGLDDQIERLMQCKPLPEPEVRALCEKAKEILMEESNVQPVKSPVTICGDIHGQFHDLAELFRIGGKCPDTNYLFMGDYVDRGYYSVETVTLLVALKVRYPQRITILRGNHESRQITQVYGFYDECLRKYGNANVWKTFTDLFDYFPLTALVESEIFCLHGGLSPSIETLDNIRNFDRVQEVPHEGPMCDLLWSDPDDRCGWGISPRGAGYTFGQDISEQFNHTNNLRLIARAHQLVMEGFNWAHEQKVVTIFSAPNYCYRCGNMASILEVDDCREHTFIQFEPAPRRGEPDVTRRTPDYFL

The first assay concerns the target T1, Elicitor responsive protein, bait …. The assay can be described thus: yeast two-hybrid.
For B1, the binding result is on record as “binds”.

As for B2, the binding result is on record as “binds”.

Consider B3, for which the binding result is “binds”.

Regarding B4, the binding result is “binds”.

As for B5, the binding result is “binds”.

Take B6: the binding result is “binds”.

With B7, the binding result is “binds”.

On to B8, for which the binding result is “binds”.

In the case of B9, the binding result is “binds”.

The target in a further assay is T2, O. sativa Chitinase, Class III, bait …. In words: yeast two-hybrid. The method, then:
Yeast carrying the target gene construct was combined with yeast carrying the activation domain library. The two yeast strains mated to form diploid yeast and were plated on media that selected for expression of one or more Ga14p-responsive reporter genes. Thus, both hybrid proteins (i.e., the target “bait” protein and the activation domain “prey” protein) were expressed in a yeast reporter strain where an interaction between the test proteins results in transcription of the reporter genes […]. Colonies that arose after incubation were selected for further characterization. The activation domain plasmid was isolated from each colony obtained in the two-hybrid search. The sequence of the insert in this construct was obtained by sequence analysis (e.g., Sanger's dideoxy nucleotide chain termination method; see Ausubel et al., 1988, including updates up to 2002). Thus, the identity of positives obtained from these searches was determined by sequence analysis against proprietary and public (e.g., GENBANK®) nucleic acid and protein databases.
This example provides newly characterized rice proteins interacting with a rice chitinase, class III (OsCHIB1), and with rice cellulose synthase catalytic subunit, RSW1-like (OsCS). An automated, high-throughput yeast two-hybrid assay technology (provided by Myriad Genetics Inc., Salt Lake City, Utah) was used to search for protein interactions with the chitinase and cellulose synthase bait proteins.
As for B10, the binding result is reported as “binds”.

Consider B11, for which the binding result is listed as “binds”.

Another assay concerns the target T4, O. sativa Serine/Threonine Protein Phosphatase PP2A-2, Catalytic Subunit, bait fragment aa 1-308 (Oryza sativa, UniProt A2XN40 1-307).
T4 construct: bait; also called OsPP2A-2; PN20254
The assay can be described thus: yeast two-hybrid.
For B12, the binding result is recorded as “binds”.

As for B13, the binding result was “binds”.

On to B14, for which the binding result was “binds”.

As to B15, the binding result is reported as “binds”.

As to B16, the binding result is reported as “binds”.

The target of a further assay is T3, O. sativa Chilling-Inducible Protein …. In words: yeast two-hybrid.
In the case of B17, the binding result was “binds”.

Turning to B18, the binding result is given as “binds”.

Regarding B19, the binding result is on record as “binds”.

In the case of B20, the binding result is “binds”.

B21: the binding result is recorded as “binds”.

Turning to B22, the binding result is “binds”.

With B23, the binding result is reported as “binds”.

The values are drawn from patent US20060235215A1 (published 2006).
